Measurements: article PMC5095173, “Disulfide-activated protein kinase G Iα regulates cardiac diastolic relaxation and fine-tunes the Frank–Starling response” (Nature Communications, 2016)

What was measured:
[1] = system: PKGIα (analogue-sensitive C42S/M438G), cGMP-activated; test: Chemical genetic phosphoproteomic screen, cGMP-activated PKGIα C42S/M438G versus unactivated control; assay type: biochemical, human PKGIα; substrates in rat heart homogenate; conditions: control = PKGIα C42S/M438G
Summary of the method: (§1)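 Substrates in rat left-ventricle homogenate (20 mg ml) are labelled by engineered Met438Gly PKGIα given a bulky N6-alkylated ATPγS analogue, either as disulfide-activated M438G (oxidized, DTT-free) or as cGMP-activated C42S/M438G. Covalent capture and LC–MS/MS identify sites relative to unactivated kinase.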

[2] = system: PKGIα (analogue-sensitive M438G), disulfide-activated; test: Chemical genetic phosphoproteomic screen, disulfide-activated PKGIα M438G versus unactivated control; assay type: biochemical, human PKGIα; substrates in rat heart homogenate; conditions: control = PKGIα C42S/M438G
Summary of the method: as §1

Row | Molecule | log2 fold change cGMP vs Control [1] | log2 fold change Disulfide vs Control [2]
1 | Map4 pT899 (protein, UniProt Q5M7W5 2-1057, looked up, phosphorylated at T899) Microtubule-associated …: ADLSLVDALTEPPPEIEGEIKRDFMAALEAEPYDDIVGETVEKTEFIPLLDGDEKSGNSESKRKPCVDTSQVEDIPSSKPTLLANGDHGVEGNNTTGSPTDFLVENVDYEDYQNSQSWPEDASFCFQPQQVLDTNQADPFNVHHDDGLADLLFVSSGPTNASAFIEENNPLEDSYGVLPCDSFAPTAVVSQEWSVGAPDSPHSEPCVSPEVTIETAQPATELSKAVDLESVKEQLPAKALEMMAGQTTDAVPSKESEGSPDTDAAPGPDTDVTLTKDIEESSSPDVISANVTQPFTESDMFLTQEMELLIGTEAAQVKDTMSSVEPDISSAKNTAPPTEEETVPGKDMTFPKEAETALPIEMDLAPPEDVALPKETELELAPAAGTAPLSETEVALAKDEEPSTGIPAAQEMLLSSETEVVLPSDSIMTLTKEVTVPLEAAGPLVSDMTAILETEMTLGGGTATPTETKLGKVKDMAPLPESEVALGKDVVTLPETKVTEFNNVTPLSEEEVASIKDVSPSPETETAKNADLHSGTELTLDNSMTPPSDPALPLETKVATVQIKDKETVQTQEELSEDSQLESVQLEGQSAVPPCTISPEPVKAADQKSTLPVDEGSPLEKLEQKETSGSQPPELCSGVSRQEEGKAAVGLTGNDIATPPNKELPPSPEKKAKPLATTQPAKTSTSKAKIQPTSLPKQPAPTTSGGLNKKPMSLASGSVPAAPHKRPAAATATARPSTLPARDLKPKPITETKVAEKRTSPSKPSSAPALRPGPKTTPTISKATSPSTLVSTGSSSRSPSTTLPKRPTTTKTEGKPADVKRMTAKSATADLSRSKTTSASSVKRNTTPTGATPPAGMASTRVKPMSAPCRSSVALSVDKKPTSTKPSSSAPRVSRLATTVSAPDLKSVRSKVGSTENMKHQPGGGRVQIQNKKVDISKVSSKCGSKANIKHKPGGGDVKIESQKLNFKEKAQAKVGSLDNVGHLPAGGTVKTEGGGSEAPPCPGPPAGEEPAIPEAAPDAGAPTSASGLSGHTTLSGGGDQREPQTLDSQIQETSI | 3.693 | 1.73
2 | Lrpprc pS656 (protein, UniProt Q5SGE0 78-1392, looked up, phosphorylated at S656) Leucine-rich PPR …: SGSQFDWALMRLDNSVRRTGRITKGLLQKVFESTCRSGSPGSNQALLLLRSCGSLLPELSLAERTEFAHKIWDKLQQLGTVYDVSHYNALLKVYLQNEYRFSPTDFLAKMEGANIQPNRVTYQRLIAAYCSVGDIEGASKILGFMKTRDLPITEAVFSALVTGHARAGDMESAENILTVMKQAGIEPGPDTYLALLNAHAEKGDIDHVKQILEKVEKSDHYFMDRDFLQIIVSFSKAGYPQYVSEILEKITYERRSIPDAMNLILLLVTEKLEDTAFQVLLALPLARDETSSSFGSFFLRHCVTMDTPAEKLIDYCKRLRDAKVHSSSLQFTLHCALQANKTALAKAVMEALRDEGFPIRTHYFWPLLVGHQKTKNVQGIIDILKIMKEMGVDPDQETYINYVFPCFGSVQSARAALQENKCLPKSTTFAQAEVRNEAINGNLQNILSFLESNALPFSFNSLRGSLILGFRRSMNIDLWSKITELLYKDDRYCQKPPGPTEAVGYFLYNLIDSMSDSEVQAKEERLRQYFHQLREMNVKVSENIYKGICNLLDNYHVPELIKDVKVLVDREKIDSRKTSQFTSSDLESTLEKLKAEGHPVGDPLKQLILLLCSEENMQKALEVKAKYESDMVIGGYAALINLCCRHDNAEDALNLKQEFDRLDPSAVLDTAKYVALVKVLGKHGRVQDAINILKEMKEKDVVIKDAAVLSFFHILNGAALRGEIETVKQLHEAIVTLGLAKPSSNISFPLVTVHLEKDDLPAALEASIACHEKYKVLPRIHDVLCKLIEKGETDLIQKAMDFVSQEQGEMSMLYDLFFAFLQTGNYKEAKKIIETPGIRARPTRLQWFCDRCIANNQVETLEKLVELTEKLFECDRDQMYYNLLKLYKISGDWQRADAVWNKMQEENLIPRERTLRLLAGILKTSNQEVPFDVPELWFGDDRSSLSSSSPSAGDTVTEKMLLSDCRLKKSKDAYNIFLKAEKQDVVFSSEAYSTLVGLLLSKDDFTRAMHVKDFAETHIKGFTLNGAASSLLIIAQVRRDYLKVALETLKAALDLEQVPSELAVTRLIQALALQGDVKSIETIQKMVKGLDAIELSRMVFINNIALAQMKNNEIDAAIENIEHMLASENQTVEHQYFGLSYLFRKVIEEQMEPALEKLSIMSERLANQFALYKPVTDLFLQLVDSGKVDEARALLERCGAIAEQTSILSVFCLRTSQKPKKAPVLKTLLELIPELRENDRVYSCSMKSYVADKDVASAKALYEHLTAKNMKLDDLFLKRYASLLKDVGEPVPFTEPPESFGFYIKQLKEARENPS | 4.57 | 0.7702
3 | Murc pS257 (protein, UniProt B1PRL5 1-362, looked up, phosphorylated at S257) Caveolae-associated protein 4: MEHNGSASNAGKIHQNRLSSVTEDEDQDAALTIVTVLDRVATVVDSVQASQKRIEERHREMGNAIKSVQIDLLKLSQSHSNTGYVVNKLFEKTRKVSAHIKDVKARVEKQQVRVTKVETKQEEIMKKNKFRVVIFQEDVPCPASLSVVKDRSLPENEEEAEEVFDPPIDLSSDEEYYVEESRSARLRKSGKEHIDHIKKAFSKENMQKTRQNFDKKVSGIRTRIVTPERRERLRQSGERLRQSGERLRQSGERFKKSISNATPSKEAFKIRSLRKPKDPKAEGQEVDRGMGVDIISGSLALGPIHEFHSDGFSETEKEVTKVGYIPQEGGDPPTPEPLKVTFKPQVRVEDDESLLLELKQSS | 1.807 | 0.9013
4 | Micall1 pS307 (protein, UniProt D3ZQL6 1-855, looked up, phosphorylated at S307) MICAL-like protein 1: MAGPRGALLAWCRRQCEGYRGVDIRDLSSSFRDGLAFCAILHRHRPDLLDFQSLSKENVFENNRLAFEVAEKELGIPALLDPNDMVSMSVPDCLSIMTYVSQYYNHFTSSGQAAASPPKPGKDPAAPSPTSTSPAVQPGEEAQGDDLSPDSLSEQGKPQPPSSACAACGQRVHLVQRYLAEGRLYHRHCFRCRQCSSTLVPGSYSSGPEEGTFVCAERCTRLGLGGRSGTRPLSLQKQQPAAAAEAKDGEDSDLSKSVVVVAAEADGLQASSEVQPHTLTKPPLPSKPQDLASPPVSRPTPAPRKASESSALTPPTPRPRSSLQQDGMVEQSVSGDLVNGRLQELPVPKPRGTPKLSERMTAPRKDPPWITLVQTEPKKKPAPLPPSSGPGPLSQASRQVENGGLEEKTQKSPAAEPEPKPYNPFEEEEEEEEASVPAVPSPAPAPPETTPKSLHPWYNITPTSSPKTKKRPAPKAPSASPLVLHASRLSHSEPPSATPSPALSVESLSSESSSHTANTEPSEPPAVPKSSSDPAVHVPGTPGTSANSVTPSAHSSLSSSGELGQPSGEQMPQARTRGSPGTHSTKPFSGATPTPFLLAGDQKSPAPPMGSSSPQMLIKSSCKENPFNRKPSPSTSPTVRKATKGAKPVRPPAPGHGFPLIKRKVQADQYIPEEDIYGEMDSIERQLDALEHSGVLLEEKLRGGANEGSEDDMLVDWFKLIHEKHLLVRRESELIYVFKQQNLEQRQADVEFELRCLLNKPEKDWTDDDRAREKVLMQELMTLIEQRDAIVNCLDEDRQREEEEDKMLETMIKKKDFQREAESDSKKKGKFKTMKVLKLLGNKRDAKSKAPTGKS | 2.266 | 1.417
5 | Matr3 pT150 (protein, UniProt P43244 2-845, looked up, phosphorylated at T150) Matrin-3: SKSFQQSSLGRDSQGHGRDLSAAGIGLLAAATQSLSMPASLGRMNQGTARLASLMNLGMSSSLNQQGAHSALSSASTSSHNLQSIFNIGSRGPLPLSSQHRGDTDQASNILASFGLSARDLDELSRYPEDKITPENLPQILLQLKRRRTEEGPTLSYGRDGRSATREPPYRVPRDDWEEKRHFRRDSFDDRGPSLNPVLDYDHGSRSQESGYYDRMDYEDDRLRDGERCRDDSFFGETSHNYHKFDSEYERMGRGPGPLQERSLFEKKRGAPPSSNIEDFHGLLPKGYPHLCSICDLPVHSNKEWSQHINGASHSRRCQLLLEIYPEWNPDNDTGHTMGDPFMLQQSTNPAPGILGPPPPSFHLGGPAVGPRGNLGAGNGNLQGPRHMQKGRVETSRVVHIMDFQRGKNLRYQLLQLVEPFGVISNHLILNKINEAFIEMATTEDAQAAVDYYTTTPALVFGKPVRVHLSQKYKRIKKPEGKPDEKFDQKQELGRVIHLSNLPHSGYSDSAVLKLAEPYGKIKNYILMRMKSQAFIEMETREDAMAMVDHCLKKALWFQGRCVKVDLSEKYKKLVLRIPNRGIDLLKKDKSRKRSYSPDGKESPSDKKSKTDGAQKTENPAEGKEQEEKSGEDGEKDTKDDQTEQEPSMLLESEDELLVDEEEAAALIESGSSVGDETDLANLGDVSSDGKKEPSDKAVKKDASATSKKKLKKVDKIEELDQENEAALENGIKNEENTEPGAESAENADDPNKDASDNSDGQNDENKEDYTIPDEYRIGPYQPNVPGGIDYVIPKTGFYCKLCSLFYTNEEVAKNTHCSSLPHYQKLKKFLNKLAEERRQKKES | 3.582 | 1.381
6 | Matr3 pS188 (protein, UniProt P43244 2-845, looked up, phosphorylated at S188) Matrin-3: SKSFQQSSLGRDSQGHGRDLSAAGIGLLAAATQSLSMPASLGRMNQGTARLASLMNLGMSSSLNQQGAHSALSSASTSSHNLQSIFNIGSRGPLPLSSQHRGDTDQASNILASFGLSARDLDELSRYPEDKITPENLPQILLQLKRRRTEEGPTLSYGRDGRSATREPPYRVPRDDWEEKRHFRRDSFDDRGPSLNPVLDYDHGSRSQESGYYDRMDYEDDRLRDGERCRDDSFFGETSHNYHKFDSEYERMGRGPGPLQERSLFEKKRGAPPSSNIEDFHGLLPKGYPHLCSICDLPVHSNKEWSQHINGASHSRRCQLLLEIYPEWNPDNDTGHTMGDPFMLQQSTNPAPGILGPPPPSFHLGGPAVGPRGNLGAGNGNLQGPRHMQKGRVETSRVVHIMDFQRGKNLRYQLLQLVEPFGVISNHLILNKINEAFIEMATTEDAQAAVDYYTTTPALVFGKPVRVHLSQKYKRIKKPEGKPDEKFDQKQELGRVIHLSNLPHSGYSDSAVLKLAEPYGKIKNYILMRMKSQAFIEMETREDAMAMVDHCLKKALWFQGRCVKVDLSEKYKKLVLRIPNRGIDLLKKDKSRKRSYSPDGKESPSDKKSKTDGAQKTENPAEGKEQEEKSGEDGEKDTKDDQTEQEPSMLLESEDELLVDEEEAAALIESGSSVGDETDLANLGDVSSDGKKEPSDKAVKKDASATSKKKLKKVDKIEELDQENEAALENGIKNEENTEPGAESAENADDPNKDASDNSDGQNDENKEDYTIPDEYRIGPYQPNVPGGIDYVIPKTGFYCKLCSLFYTNEEVAKNTHCSSLPHYQKLKKFLNKLAEERRQKKES | 1.38 | -0.9169
